Where “and” joins values, the source holds several entries; their conditions need not be identical. Equal entries are not always repeated.
Target: the molecule itself
Experiment: cross-linking; S100A12 (1 µg) and SAA (1 µg), alone or together, with bis[sulfosuccinimidyl] suberate (BS3, 5 µM) in PBS, in the presence or absence of 1 mM Ca2+, 30 min at RT in the dark; 10% SDS-PAGE under non-reducing conditions, silver stain

B1: Human recombinant S100A12 (natural protein, UniProt P80511 1-92, looked up)
chain: MTKLEEHLEGIVNIFHQYSVRKGHFDTLSKGELKQLLTKELANTIKNIKDKAVIDEIFQGLDANQDEQVDFQEFISLVAIALKAAHYHTHKE
notes: S100A12, human, recombinant
B1 was tested, and the “stoichiometry N” value was 2 and 4.

— publication PMC3634854, “S100A12 Suppresses Pro-inflammatory, but Not Pro-Thrombotic Functions of Serum Amyloid A” (PLoS ONE, 2013)
